Measurements reported in patent US20030124602.

Test system: Flag epitope tagged CTMPs (F.CTMPs; CTMP starting at the natural ATG of the cDNA)
Sequence (chain, as listed by the source): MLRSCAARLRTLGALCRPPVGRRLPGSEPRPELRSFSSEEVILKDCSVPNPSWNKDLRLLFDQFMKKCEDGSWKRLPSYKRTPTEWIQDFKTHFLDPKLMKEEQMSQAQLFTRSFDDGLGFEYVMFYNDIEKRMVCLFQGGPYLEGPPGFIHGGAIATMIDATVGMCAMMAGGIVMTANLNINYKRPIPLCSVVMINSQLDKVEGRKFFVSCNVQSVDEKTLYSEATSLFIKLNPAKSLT

In the case of “HA epitope-tagged PKB alpha (HA-PKBα, pCMV5-HA-PKBα)”, the “phosphorylation of PKB on Thr 308 and Ser 473, Western blot with phospho-specific antibodies” value was “CTMP expression leads to a reduction of phosphorylation on both residues but most notably on the S473 site”.
